# Test results reported in US6528275B1, “Substrates and inhibitors of proteolytic enzymes” (Peptide Therapeutics Limited, priority 1996, dated 2003).
# Experiments:
# Experiment in all cases: Der pI substrate assay with FRET peptides (fluorescence, Km, kcat/Km)
# Format in all cases: biochemical, house dust mite
# Conditions in all cases: other: purified Der pI; peptides SEQ ID Nos. 1-76; pH 8.25
# [1] = substrate: CC(C)CC[C@H](NC(=O)[C@H](C)NC(=O)[C@H](Cc1ccc(-c2ccccc2)cc1)NC(=O)c1ccccc1N)C(=O)N[C@@H](CCCCN)C(=O)N[C@@H](Cc1ccc(O)c([N+](=O)[O-])c1)C(=O)N[C@@H](CC(=O)O)C(N)=O
# Experimental: (§1) Using the general techniques described above, the following compounds were prepared and assayed as potential substrates against Der pI purified as described above.
# (§2) Each mixture of 20 compounds in the libraries of the apparatus described herein was screened at a concentration of 1.0 μM per compound in an assay against the cysteinyl protease Der pI.
# (§3) Plate assays were carried out in 96 well plate format, using 0.1 ug of Der pI per 100 μL assay volume in each well and using 20 μM of the substrate. All assays were performed in Assay Buffer (AB; 50 mM potassium phosphate, pH 8.25 containing 1 mM ethylenediaminetetraacetic acid (EDTA) and 1 mM dithiothreitol (DTT). The Der pI enzyme is pre-activated by addition of DTT and this in incubated at room temperature for 5 min. prior to initiation of the assay. As an example for the screening methodology, each well contains a 5 μL of a 20 μM solution of the test compound in DMSO, 10 μL of a 200 μM aqueous solution of the substrate, 2, and 85 μL of Der pI in AB is added to initiate the reaction. Enzyme activity is monitored by fluorescence using 320 nm for excitation and 420 nm for the emission wavelengths using a Labsystems Fluroskan Ascent machine. Kinetic measurements were carried out using a Hitachi F-4500 Fluorescence Spectrophotometer.
# [2] = substrate: CC(C)CC[C@H](NC(=O)[C@H](C)NC(=O)[C@H](Cc1ccc(-c2ccccc2)cc1)NC(=O)c1ccccc1N)C(=O)N[C@H](C(=O)N[C@@H](Cc1ccc(O)c([N+](=O)[O-])c1)C(=O)N[C@@H](CC(=O)O)C(N)=O)[C@@H](C)O
# Experimental: as §1, §2, §3
# [3] = substrate: CC(C)[C@H](NC(=O)c1ccccc1N)C(=O)N[C@@H](C)C(=O)N[C@@H](CC1CCCCC1)C(=O)N[C@@H](CO)C(=O)N[C@@H](Cc1ccc(O)c([N+](=O)[O-])c1)C(=O)N[C@@H](CC(=O)O)C(N)=O
# Experimental: as §1, §2, §3
protein,measurement,setting,value
"Der pI (Dermatophagoides pteronyssinus) (protein, tissue SmithKline-Beecham, U.K (crude mite extract); host or cells: crude house dust mite extract) TNACSINGNAPAEIDLRQMRTVTPIRMQGGCGSCWAFSGVAATESAYLAYRNQSLDLAEQELVDCASQHGCHGDTIPRGIEYIQHNGVVQESYYRYVAREQSCRRPNAQRFGISNYCQIYPPNVNKIREALAQTHSAIAVIIGIKDLDAFRHYDGRTIIQRDNGYQPNYHAVNIVGYSNAQGVDYWIVRNSWDTNWGDNGYGYFAANIDLMMIEEYPYVVIL",Km,[1],2 µM
same,Km,[2],2.5 µM
same,Km,[3],5 µM
